Experimental data from FireProtDB (doi:10.1006/jmbi.1999.2569).

B1: Ribonuclease, P00648 (parent)
chain: MMKMEGIALKKRLSWISVCLLVLVSAAGMLFSTAAKTETSSHKAHTEAQVINTFDGVADYLQTYHKLPDNYITKSEAQALGWVASKGNLADVAPGKSIGGDIFSNREGKLPGKSGRTWREADINYTSGFRNSDRILYSSDWLIYKTTDHYQTFTKIR

Variants of: B1
Details: Bacillus amyloliquefaciens, pH 6.3, Thermal, DSC, MES 50 mM, structure 1BNI, whole UniProt chain shown; for ddG of mutation (higher = less stable): 54.1 °C

Variant	ddG of mutation (higher = less stable) [kcal/mol]	Tm [°C]	change of melting temperature, mutant - wild type (higher = more stable) [°C]
G100A	3.4	45.5	-8.6
G100V	7.8	34.5	-19.6
G99V	8.4	33	-21.1
G99A	5.3	–	–
